One series relates to BMSC. In words: Direct toxicity on bone marrow stroma cells (annexin V). Type of series: cell-based, human. The conditions noted are these: 5 μg/ml, 72 hours (FIG. 5 legend). As to the method:
FIG. 5 is a graph showing apoptosis of UTMC2 cells in response to treatment with PRO-001 in the presence of BMSCs (stroma). BMSCs alone (stroma) or BMSCs together with UTMC2 cells (stroma/UTMC2) were cultured with control antibody or 5 μg/ml PRO-001 for 72 hours and apoptosis was assessed by means of a flow cytometry assay of annexin V binding and propidium iodide exclusion. Values represent means of quadruplicate cultures ±SD.
Non-transformed rat chondrocyte cell line expressing PGFR3 in an inducible manner (RCJ-FGFR3) has been described previously (Rauchenberger R. et al. J. Biol. Chem. 2003; 278:38194-205). Cells were maintained in α-Minimum Essential Media supplemented with 15% fetal calf serum (FCS), 2 mM L-Glutamine, 100 U/ml penicillin, 100 μg/ml streptomycin, 600 μg/ml G418 (Gibco BRL, Ontario, Canada), 2 μg/ml Tetracyclin (Sigma, Ontario, Canada), and 50 μg/ml HygromycinB (Gibco BRL). FGFR3 expression was induced by removal of tetracyclin and serum starvation. […]
For studies of apoptosis, cells were seeded at an initial density of 2.5×10^5/ml in 6 well plates coated with BMSCs and supplemented with control (vehicle or antibody) or 5 μg/ml PRO-001 and cultured for 48 h. Apoptosis was determined by Annexin V staining (Boehringer Mannheim, Indianapolis, Ind.) and analyzed by flow cytometry. […]

In another series the target is T1, WT FGFR3 (Homo sapiens, UniProt P22607).
T1 construct: expressed in transfected cells; host or cells: B9 cells
T1 sequence (P22607 23-806): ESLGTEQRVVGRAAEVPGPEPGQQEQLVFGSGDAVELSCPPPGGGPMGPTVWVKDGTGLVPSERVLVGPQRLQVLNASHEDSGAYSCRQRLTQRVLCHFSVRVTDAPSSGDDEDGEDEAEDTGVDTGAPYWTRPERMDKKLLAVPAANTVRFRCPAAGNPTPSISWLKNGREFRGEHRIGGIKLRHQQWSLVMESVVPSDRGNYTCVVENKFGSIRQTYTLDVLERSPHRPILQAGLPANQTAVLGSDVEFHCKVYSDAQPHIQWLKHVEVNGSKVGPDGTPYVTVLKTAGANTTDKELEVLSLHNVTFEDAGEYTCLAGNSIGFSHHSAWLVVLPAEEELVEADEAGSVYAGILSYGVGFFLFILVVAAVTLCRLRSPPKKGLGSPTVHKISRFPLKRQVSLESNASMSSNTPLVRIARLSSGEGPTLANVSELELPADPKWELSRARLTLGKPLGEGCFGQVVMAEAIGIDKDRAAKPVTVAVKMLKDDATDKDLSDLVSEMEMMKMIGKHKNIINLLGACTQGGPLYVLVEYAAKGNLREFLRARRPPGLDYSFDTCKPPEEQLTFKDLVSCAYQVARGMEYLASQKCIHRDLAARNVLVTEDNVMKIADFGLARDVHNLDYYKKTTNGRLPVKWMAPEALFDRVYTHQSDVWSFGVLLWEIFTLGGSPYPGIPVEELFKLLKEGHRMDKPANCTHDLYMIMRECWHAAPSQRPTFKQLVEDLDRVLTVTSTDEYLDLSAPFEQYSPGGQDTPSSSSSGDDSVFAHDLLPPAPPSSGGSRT
In words: Ligand-stimulated receptor phosphorylation in RCJ-FGFR3 cells (immunoprecipitation, Western blot). Type of series: cell-based. As for the experimental part: FIG. 1C is a photograph of a Western blot showing immune staining of RCJ-FGFR3 cell lysates. RCJ cells were stimulated with FGF (+) with or without pre-incubation with a Fab. Lane 1—no FGF stimulation and no pre-incubation with a Fab. Lane 2—FGF stimulation, no pre-incubation with a Fab. Lane 3—FGF stimulation and pre incubation with a control (C) antibody. Lane 4—FGF stimulation and pre-incubation with an anti-FGFR3 (001) Fab.
Non-transformed rat chondrocyte cell line expressing PGFR3 in an inducible manner (RCJ-FGFR3) has been described previously (Rauchenberger R. et al. J. Biol. Chem. 2003; 278:38194-205). Cells were maintained in α-Minimum Essential Media supplemented with 15% fetal calf serum (FCS), 2 mM L-Glutamine, 100 U/ml penicillin, 100 μg/ml streptomycin, 600 μg/ml G418 (Gibco BRL, Ontario, Canada), 2 μg/ml Tetracyclin (Sigma, Ontario, Canada), and 50 μg/ml HygromycinB (Gibco BRL). […]
Cells were lysed in lysis buffer (50 mM Tris/HCl, pH 8.0, 150 mM […], 0.1 mM ZnCl2, 0.5% Nonidet NP-40, 1 mg/ml, complete protease inhibitor mix (Roche Molecular Biochemicals, Mannheim, Germany)), and clarified by centrifugation at 12,000×g for 15 minutes. The lysates were subjected to immunoprecipitation for 16 hours at 4° C. with anti-FGFR3 (C15) and analyzed by 7.5% sodium dodecyl-polyacrylamide gel electrophoresis (SDS-PAGE) and Western blot with anti-phosphotyrosine (4G10 from R&D). […]
Background: A western blot detects proteins with antibodies after separation by electrophoresis.

B1: PRO-001: human anti-FGFR3 Fab from HuCAL library; VH-CDR3 SEQ ID NO:1, VL-CDR3 SEQ ID NO:10; VH SEQ ID NO:19, VL SEQ ID NO:28 (antibody, V domains shown)
VH: QVQLQQSGPGLVKPSQTLSLTCAISGDSVSSNSAAWNWIRQSPGRGLEWLGRTYYRSKWYNDYAVSVKSRITINPDTSKNQFSLQLNSVTPEDTAVYYCARSYYPDFDYWGQGTLVTVSS
VL: DIELTQPPSVSVAPGQTARISCSGDALGDKYASWYQQKPGQAPVLVIYDDSDRPSGIPERFSGSNSGNTATLTISGTQAEDEADYYCQSYDGPDLWVFGGGTKLTVLGQ
Consider B1, for which the “Direct toxicity on the BMSC” value in the series with BMSC is given as “no direct toxicity”. For the same molecule, the “Downstream JNK phosphorylation” value with WT FGFR3 is given as “reduction in downstream JNK phosphorylation”. For the same molecule, in the series with WT FGFR3 (anti-phosphotyrosine immunoblot), the “Ligand-stimulated autophosphorylation of FGFR3” value is recorded as “inhibited”.

Values taken from patent US20090175866A1, “TREATMENT OF B-CELL MALIGNANCIES” (priority 2004, published 2009).
